Reference: US20050158748

Legend:
[1] = tested on: ribosomal protein S6 (in purified 40S ribosomal subunits from liver)
[2] = tested on: synthetic peptide representing C-terminus of S6 protein

## recombinant p70α^S6k (Flag-tag or EE-tag version, expressed in HEK293 cells)
[1]
  in vitro kinase reaction: phosphorylation of S6 protein in 40S subunits: p70β^S6k (p70β-II isoform) phosphorylates the S6 protein in vitro nearly as efficiently as p70α^S6k
[2]
  in vitro kinase reaction: phosphorylation of the synthetic peptide: also phosphorylates this peptide but with slightly lower efficiency than observed with p70α^S6k
